The values that follow come from patent publication US20090012494A1, “I[…] OF BIOLOGICAL AGENTS” (NanoPass Technologies Ltd., priority 2006, published 2009).

In this experiment the target is T1, Insulin from Porcine Pancreas (antigen) (Sus scrofa, UniProt P01315).
T1 construct: Insulin from Porcine Pancreas; purchased SIGMA 1-5523; host or cells: porcine pancreas (tissue-derived)
In words: Guinea pig ID immunization with porcine insulin; antigen/antibody complex by Dextran coated Charcoal Radioimmunoassay. Type of experiment: in vivo, Dunkin Hartley male Guinea Pigs. As to the method: Various animals (e.g., Guinea pigs) are used in industry to produce primary and secondary antibodies for biological and clinical research, based on immunoassay methods (e.g. ELISA). In some of these animals the specific antigen is injected intradermally, in order to achieve a larger and/or faster immune response (antibodies production). After the primary immunization, several immunization boosters are given at different time intervals, and blood is collected. The antibodies production level is measured by measuring the antigen/antibody complex formation levels, in different dilution levels, using conventional immunoassay methods. Usually, a fixed cut-off value (percentage of antigen/antibodies complex formation in a specific dilution level) must be achieved.
18 Dunkin Hartley male Guinea Pigs were divided into two groups. The animals were anesthetized with a 0.2 ml of Ketamine/Xylazine mixture (1:1 ratio) I.M. Anesthetizing was followed by 0.1 ml I.D. immunization with Insulin from Porcine Pancreas (SIGMA, Cat. No. 1-5523) in a Freund's adjuvant emulsion mixture (SIGMA), injected in 4 sites on the skin. […] After plasma separation, antigen/antibody complex levels were detected in the 2 ml serum sample, using a Dextran coated Charocal Radioimmunoassay method.

T1 sequence (P01315 25-54 limits assumed): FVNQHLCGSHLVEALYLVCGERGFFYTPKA
T1 sequence (P01315 88-108 limits assumed): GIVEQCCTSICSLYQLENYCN

Take “Insulin from Porcine Pancreas: Insulin from Porcine Pancreas (SIGMA) in a Freund's adjuvant emulsion mixture, used as immunizing antigen”: the “production time needed to achieve the per-protocol cut-off value, microneedle versus regular injection” value (cut-off 50% Antigen/Antibody complex formation at dilution 1:80 K, microneedle vs regular 25 g needle) turned out to be 3 times shorter. Further, the “Antigen/Antibody complex formation, Ka [L/mol] values, microneedle versus regular injection” value (dilution level 1:80K, ID microneedles (Nano) vs regular 25 g hypodermic needle, in Freund's adjuvant) was “more than 3 times higher”.
